Results on two substances are retold here after patent US20260069679A1.

For test [1], the target named is SS-L2-LuS (MERS-CoV EMC/2012 spike stem fused to Aquifex aeolicus lumazine synthase). As to the kind of experiment: BLI, 1:1 fit. Background: BLI is a label-free optical method that tracks binding on a fibre tip over time.
Test [2] deals with SS-L6-Aferr. In words: BLI, 1:1 fit.
Test [3] addresses SS-L6-LuS. In words: BLI, 1:1 fit.
The target of test [4] is SS\u0394G4Loop-L6-Aferr (MERS-CoV EMC/2012 spike stem fused to human apoferritin). In words: BLI, 1:1 fit.
The target in test [5] is SS\u0394G4Loop-L6-LuS (MERS-CoV EMC/2012 spike stem fused to Aquifex aeolicus lumazine synthase). As to the kind of experiment: BLI, 1:1 fit.
Test [6] concerns the target SS-L2-LuS (MERS-CoV EMC/2012 spike stem fused to Aquifex aeolicus lumazine synthase).
Test [7] concerns the target MERS SS Nanoparticle (NP).
For test [8], the target named is MERS SS delG4loop Nanoparticle. In words: BLI sensorgrams, six curves without concentration labels, time axis 0-500 s.

On to CC40.8 (antibody), for which the Kd is 748 pM in test [1]; 1970 pM in test [2]; 1850 pM in test [3]; 2730 pM in test [4]; 2280 pM in test [5]. Moreover, the kon in test [1] stood at 315000 M⁻¹ s⁻¹; in test [2] it was 268000 M⁻¹ s⁻¹; in test [3] it was 219000 M⁻¹ s⁻¹; in test [4], 184000 M⁻¹ s⁻¹; in test [5] it was 218000 M⁻¹ s⁻¹.
G4 (antibody) registered a maximum binding in test [6] of 1.3 nm. The Kd was found to be 1.7 pM in test [7]; 1.78 pM in test [1]; 3.02 pM in test [2]; 4.6 pM in test [3]; 2.82 pM in test [4]; 3.47 pM in test [5]. Also, the Kd in test [8] was found to be 3 pM. Moreover, the kon in test [1] came to 270000 M⁻¹ s⁻¹; in test [2] it was 155000 M⁻¹ s⁻¹; in test [3] it was 133000 M⁻¹ s⁻¹; in test [4], 229000 M⁻¹ s⁻¹; in test [5], 147000 M⁻¹ s⁻¹.

Broadly, the Kd is the concentration at which binding is half-saturated. What is called kon is the second-order rate constant of association.
